# What was measured:
# Test in all cases: SPR; Biacore 8K; original LD3 and mutants immobilised on CM5 chip by amine coupling (500-1000 RU); Bcl-2 injected as analyte in serial 2-fold dilutions (from 2000 or 500 nM); HBS-EP+ pH 7.4, 150 mM NaCl; 1:1 Langmuir fit; three independent experiments
# LD3_v1 (L133A) = molecular target: LD3_v1 (L133A)
# LD3_v2 (I136A) = molecular target: LD3_v2 (I136A)
# LD3_v3 (D138A) = molecular target: LD3_v3 (D138A)
# LD3_v4 (F140A) = molecular target: LD3_v4 (F140A)
# LD3_v5 (K144A) = molecular target: LD3_v5 (K144A)
# Sequence of LD3_v5 (K144A) (P02649 other isoform, or with tags, fused parts or gaps K144A): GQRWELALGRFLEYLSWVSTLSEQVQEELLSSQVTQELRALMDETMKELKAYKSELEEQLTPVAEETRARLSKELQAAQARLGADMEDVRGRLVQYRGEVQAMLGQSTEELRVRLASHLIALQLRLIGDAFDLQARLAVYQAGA
# Sequence of LD3_v2 (I136A) (P02649 other isoform, or with tags, fused parts or gaps I136A): as the sequence (P02649 other isoform, or with tags, fused parts or gaps K144A) above, with I127A, A135K counted along it
# Sequence of LD3_v3 (D138A) (P02649 other isoform, or with tags, fused parts or gaps D138A): as the sequence (P02649 other isoform, or with tags, fused parts or gaps K144A) above, with D129A, A135K counted along it
# Sequence of LD3_v4 (F140A) (P02649 other isoform, or with tags, fused parts or gaps F140A): as the sequence (P02649 other isoform, or with tags, fused parts or gaps K144A) above, with F131A, A135K counted along it
# Sequence of LD3_v1 (L133A) (P02649 other isoform, or with tags, fused parts or gaps L133A): as the sequence (P02649 other isoform, or with tags, fused parts or gaps K144A) above, with L124A, A135K counted along it
substance,measurement,setting,value
B-cell lymphoma 2 (Bcl-2) protein (from UniProt P10415 1-239) (natural protein),Kd,LD3_v1 (L133A),65.8 nM
same,koff,LD3_v1 (L133A),0.00263 s⁻¹
same,kon,LD3_v1 (L133A),40800 M⁻¹ s⁻¹
same,Kd,LD3_v2 (I136A),0.74 nM
same,koff,LD3_v2 (I136A),8.9e-05 s⁻¹
same,kon,LD3_v2 (I136A),360000 M⁻¹ s⁻¹
same,Kd,LD3_v3 (D138A),358 nM
same,koff,LD3_v3 (D138A),0.0184 s⁻¹
same,kon,LD3_v3 (D138A),154000 M⁻¹ s⁻¹
same,Kd,LD3_v4 (F140A),27.3 nM
same,koff,LD3_v4 (F140A),0.00197 s⁻¹
same,kon,LD3_v4 (F140A),240000 M⁻¹ s⁻¹
same,Kd,LD3_v5 (K144A),0.46 nM
same,koff,LD3_v5 (K144A),6.6e-05 s⁻¹
same,kon,LD3_v5 (K144A),455000 M⁻¹ s⁻¹
